# In the Immune Epitope Database (IEDB):
# Key:
# HLA-B*15:01 [1] = experiment: IEDB peptide-MHC binding, purified MHC/direct/fluorescence; filed as Kd, often an IC50 or EC50 that approximates it; ≥ and ≤ were set here for values at or beyond the usual limits of such assays
# HLA-B*58:01 = experiment: as above
# HLA-B*44:02 = experiment: as above; conditions: source organism: Brucella abortus 2308
# HLA-B*08:01 [2] = experiment: as above
# HLA-A*11:01 = experiment: as above
# HLA-A*31:01 [3] = experiment: as above
# HLA-B*73:01 [4] = experiment: as above
# HLA-B*40:01 = experiment: as above
# HLA-B*27:05 [5] = experiment: as above
# HLA-A*03:01 [6] = experiment: as above
# HLA-B*07:02 [7] = experiment: as above
# HLA-A*69:01 = experiment: as above
# HLA-A*01:01 = experiment: as above
# HLA-A*26:01 = experiment: as above
# HLA-A*02:01 [8] = experiment: as above; conditions: source organism: Brucella abortus 2308
# HLA-B*48:01 [9] = experiment: as above
# HLA-B*15:01 [10] = experiment: IEDB peptide-MHC binding, purified MHC/competitive/fluorescence; filed as Kd, often an IC50 or EC50 that approximates it; ≥ and ≤ were set here for values at or beyond the usual limits of such assays
# HLA-B*08:01 [11] = experiment: as above; conditions: source organism: Ectromelia virus
# HLA-B*15:09 = experiment: as above; conditions: source organism: Ectromelia virus
# HLA-A*02:01 [12] = experiment: as above
# HLA-B*57:01 = experiment: IEDB peptide-MHC binding, purified MHC/direct/fluorescence; filed as Kd, often an IC50 or EC50 that approximates it; ≥ and ≤ were set here for values at or beyond the usual limits of such assays
# HLA-B*15:17 [13] = experiment: as above; conditions: source organism: Camelpox virus CMS
# HLA-B*38:01 = experiment: as above; conditions: source organism: Variola virus
# HLA-B*18:01 = experiment: as above
# HLA-B*51:01 = experiment: as above; conditions: source organism: Camelpox virus CMS
# HLA-B*45:06 = experiment: IEDB peptide-MHC binding, purified MHC/competitive/fluorescence; filed as Kd, often an IC50 or EC50 that approximates it; ≥ and ≤ were set here for values at or beyond the usual limits of such assays; conditions: source organism: Mus musculus
# HLA-B*73:01 [14] = experiment: as above; conditions: source organism: Mus musculus
# HLA-B*15:42 = experiment: as above; conditions: source organism: Mus musculus
# HLA-B*27:20 = experiment: as above; conditions: source organism: Mus musculus
# HLA-C*06:02 [15] = experiment: as above; conditions: source organism: Mus musculus
# HLA-C*07:02 = experiment: IEDB peptide-MHC binding, purified MHC/direct/fluorescence; filed as Kd, often an IC50 or EC50 that approximates it; ≥ and ≤ were set here for values at or beyond the usual limits of such assays; conditions: source organism: Mus musculus
# HLA-C*04:01 = experiment: as above; conditions: source organism: Leishmania major strain Friedlin
# HLA-A*31:01 [16] = experiment: IEDB peptide-MHC binding, purified MHC/competitive/fluorescence; filed as Kd, often an IC50 or EC50 that approximates it; ≥ and ≤ were set here for values at or beyond the usual limits of such assays; conditions: source organism: Escherichia coli
# HLA-A*03:01 [17] = experiment: as above; conditions: source organism: Escherichia coli
# HLA-C*06:02 [18] = experiment: IEDB peptide-MHC binding, purified MHC/direct/fluorescence; filed as Kd, often an IC50 or EC50 that approximates it; ≥ and ≤ were set here for values at or beyond the usual limits of such assays; conditions: source organism: Escherichia coli
# HLA-B*27:05 [19] = experiment: IEDB peptide-MHC binding, purified MHC/competitive/fluorescence; filed as Kd, often an IC50 or EC50 that approximates it; ≥ and ≤ were set here for values at or beyond the usual limits of such assays; conditions: source organism: Mycobacterium tuberculosis variant bovis BCG str. Pasteur 1173P2
# HLA-B*15:17 [20] = experiment: as above; conditions: source organism: Orthomarburgvirus marburgense
# HLA-B*07:02 [21] = experiment: as above; conditions: source organism: Orthomarburgvirus marburgense
# HLA-A*30:01 = experiment: as above; conditions: source organism: Orthomarburgvirus marburgense
# HLA-A*68:02 = experiment: as above; conditions: source organism: Orthomarburgvirus marburgense
# HLA-B*48:01 [22] = experiment: as above; conditions: source organism: Orthomarburgvirus marburgense
# HLA-A*26:03 = experiment: IEDB peptide-MHC binding, purified MHC/direct/fluorescence; filed as Kd, often an IC50 or EC50 that approximates it; ≥ and ≤ were set here for values at or beyond the usual limits of such assays; conditions: source organism: Ravn virus - Ravn, Kenya, 1987
# HLA-B*08:02 = experiment: as above; conditions: source organism: Ravn virus - Ravn, Kenya, 1987
# HLA-B*46:01 = experiment: as above; conditions: source organism: Marburg virus - Musoke, Kenya, 1980
# HLA-B*39:01 = experiment: as above; conditions: source organism: Marburg virus - Musoke, Kenya, 1980
# [23] = source organism: Brucella abortus 2308
# [24] = source organism: Brucella melitensis
# [25] = source organism: Toxoplasma gondii
# [26] = source organism: Ectromelia virus
# [27] = source organism: Camelpox virus CMS
# [28] = source organism: Marburg virus - Musoke, Kenya, 1980
sequence,measurement,setting,value
KRASGDPYF,Kd,HLA-B*15:01 [1]; [23],≥ 20 µM
same,Kd,HLA-B*58:01; [24],5.93 µM
same,Kd,HLA-B*44:02,≥ 20 µM
same,Kd,HLA-B*08:01 [2]; [23],≥ 20 µM
same,Kd,HLA-A*11:01; [23],≥ 20 µM
same,Kd,HLA-A*31:01 [3]; [23],≥ 20 µM
same,Kd,HLA-B*73:01 [4]; source organism: Brucella suis ATCC 23445,≥ 20 µM
same,Kd,HLA-B*40:01; [23],≥ 20 µM
same,Kd,HLA-B*27:05 [5]; [24],2.79 µM
same,Kd,HLA-A*03:01 [6]; [23],≥ 20 µM
same,Kd,HLA-B*07:02 [7]; [23],≥ 20 µM
same,Kd,HLA-A*69:01; [23],≥ 20 µM
same,Kd,HLA-A*01:01; [23],≥ 20 µM
same,Kd,HLA-A*26:01; [23],≥ 20 µM
same,Kd,HLA-A*02:01 [8],≥ 20 µM
WRMVVRASF,Kd,HLA-B*73:01 [4]; [25],1.34 µM
same,Kd,HLA-B*27:05 [5]; [25],0.008 µM
same,Kd,HLA-B*48:01 [9]; [25],≥ 20 µM
VIARTHTAL,Kd,HLA-B*15:01 [10]; [26],0.785 µM
same,Kd,HLA-B*08:01 [11],0.0518 µM
same,Kd,HLA-B*15:09,≥ 20 µM
same,Kd,HLA-A*02:01 [12]; [26],≥ 20 µM
same,Kd,HLA-B*57:01; [27],≥ 20 µM
same,Kd,HLA-B*15:17 [13],≥ 20 µM
same,Kd,HLA-B*58:01; [27],≥ 20 µM
same,Kd,HLA-A*11:01; [27],≥ 20 µM
same,Kd,HLA-A*31:01 [3]; [27],≥ 20 µM
same,Kd,HLA-B*40:01; [27],≥ 20 µM
same,Kd,HLA-B*27:05 [5]; [27],≥ 20 µM
same,Kd,HLA-A*03:01 [6]; [27],≥ 20 µM
same,Kd,HLA-B*07:02 [7]; [27],0.0583 µM
same,Kd,HLA-A*69:01; [27],≥ 20 µM
same,Kd,HLA-A*01:01; [27],≥ 20 µM
same,Kd,HLA-A*26:01; source organism: Variola virus,≥ 20 µM
same,Kd,HLA-B*38:01,≥ 20 µM
same,Kd,HLA-B*18:01; [27],≥ 20 µM
same,Kd,HLA-B*48:01 [9]; [27],≥ 20 µM
same,Kd,HLA-B*51:01,≥ 20 µM
FRMLAWHVL,Kd,HLA-B*45:06,≥ 5 µM
same,Kd,HLA-B*73:01 [14],0.689 µM
same,Kd,HLA-B*15:42,≥ 5 µM
same,Kd,HLA-B*27:20,0.0002 µM
same,Kd,HLA-C*06:02 [15],0.0038 µM
same,Kd,HLA-C*07:02,0.03 µM
TRDPNLAYI,Kd,HLA-C*04:01,≥ 20 µM
RYWRLRYRI,Kd,HLA-B*15:01 [10]; source organism: Escherichia coli,≥ 20 µM
same,Kd,HLA-A*31:01 [16],0.0021 µM
same,Kd,HLA-A*03:01 [17],≥ 20 µM
same,Kd,HLA-C*06:02 [18],≥ 20 µM
GRAVSSATF,Kd,HLA-B*27:05 [19],0.141 µM
YHLGGIEGL,Kd,HLA-B*15:17 [20],≥ 20 µM
same,Kd,HLA-B*07:02 [21],≥ 20 µM
same,Kd,HLA-A*30:01,≥ 20 µM
same,Kd,HLA-A*02:01 [12]; source organism: Orthomarburgvirus marburgense,0.007 µM
same,Kd,HLA-A*68:02,1.44 µM
same,Kd,HLA-B*48:01 [22],0.155 µM
same,Kd,HLA-B*57:01; [28],≥ 20 µM
same,Kd,HLA-B*15:01 [1]; [28],≥ 20 µM
same,Kd,HLA-A*26:03,≥ 20 µM
same,Kd,HLA-B*58:01; [28],≥ 20 µM
same,Kd,"HLA-B*08:01 [2]; source organism: Ravn virus - Ravn, Kenya, 1987",≥ 20 µM
same,Kd,HLA-B*40:01; [28],≥ 20 µM
same,Kd,HLA-B*27:05 [5]; [28],≥ 20 µM
same,Kd,HLA-A*69:01; [28],2.41 µM
same,Kd,HLA-B*08:02,≥ 20 µM
same,Kd,HLA-A*01:01; [28],≥ 20 µM
same,Kd,HLA-B*46:01,≥ 20 µM
same,Kd,HLA-B*18:01; [28],≥ 20 µM
same,Kd,HLA-B*39:01,0.0403 µM
